Target: eHSP90α-His6 (secreted from HEK293) (human) (UniProt P07900)
Experiment: native gel or EMSA

eHSP90α-His6 (secreted from HEK293) (from UniProt P07900 1-732) (natural protein)
stoichiometry N: 2
